According to patent publication US20110229482A1, “Method of inhibiting infection by HCV, other flaviviridae viruses, and any other virus that complexes to low density lipoprotein or to very low density lipoprotein in blood by preventing viral entry into a cell” (priority 2000, published 2011):

Molecular target: LDL receptor (human), on cells (human) (UniProt P01130)
Test: cell-based or functional assay

HDL fraction of HCV-infected serum (HCV-HDL)
Endocytosis of 5 µg DiI-labeled fraction, mean fluorescence (log scale) (mean fluorescence (log scale)): 1.88

LDL fraction of HCV-infected serum (HCV-LDL)
Endocytosis of 5 µg DiI-labeled fraction, mean fluorescence (log scale) (mean fluorescence (log scale)): 9.98

VLDL fraction of HCV-infected serum (HCV-VLDL)
Endocytosis of 5 µg DiI-labeled fraction, mean fluorescence (log scale) (mean fluorescence (log scale)): 8.49

high density lipoprotein (HDL) from normal serum
competitive inhibition of endocytosis of HCV by HepG2, G4 and E11 cells: > 200 µg/mL

low density lipoprotein (LDL) from normal serum, P04114 1-4563
Uptake of LDL by cultured cells, mean fluorescence (G4, lipoprotein deficient medium, DiI-LDL) (mean fluorescence): 16 | Uptake of LDL by cultured cells, mean fluorescence (G4, routine medium, DiI-LDL) (mean fluorescence): 4 | Uptake of LDL by cultured cells, mean fluorescence (HepG2, routine medium, DiI-LDL) (mean fluorescence): 16
